The data set can be described thus: self-splicing fitness, log relative to wild type (ln ratio); higher = more splicing; Tetrahymena group I intron in knt gene, E. coli kanamycin selection, DiMSum; sequences stand for … in CUCUCU…GGAGGGAAAAGUUAUCAGGCAUGCACCUGGUAGCUAGUCUUUAAACCAAUAGAUUGCAUCGGUUUAAAAGGCAAGACCGUCAAAUUGCGGGAAAGGGGUCAACAGCCGUUCAGUACCAAGUCUCAGGGGAAACUUUGAGAUGGCCUUGCAAAGGGUAUGGUAAUAAGCUGACGGACAUGGUCCUAACCACGCAGCCAAGUCCUAAGUCAACAGAUCUUCUGUUGAUAUGGAUGCAGUUCACAGACUAAAUGUCGGUCGGGGAAGAUGUAUUCUUCUCAUAAGAUAUAGUCGGACCUCUCCUUAAUGGGAGCUAGCGGAUGAAGUGAUGCAACACUGGAGCCGCUGGGAACUAAUUUGUAUGCGAAAGUAUAUUGAUUAGUUUUGGAGUACUCGUGGUCG
Summed up:
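A randomised library covering all eight P1ex-region intron nucleotides was built with the intron in the knt kanamycin-resistance gene on pET-22b(+) and held in E. coli BL21(DE3). Cells were grown overnight at 37°C or 30°C on LB agar, with or without 25 μg/mL kanamycin, plus 100 μg/mL carbenicillin, 50 μM IPTG and 0.2% rhamnose, and pooled colonies were amplicon-sequenced on an Illumina HiSeq 2500. DiMSum fitness is the error-weighted combination of wild-type-normalised replicate fold changes, kanamycin versus none.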

The values that follow come from the supplement of paper PMC7877785.

± gives the uncertainty stated by the source.

In the case of UACAAGCAAUAUUACGAACU, the “self-splicing fitness (ln)” value was -1.48 ± 0.089 (30 °C) and -0.628 ± 0.1 (37 °C).

As to UACAAGCAAUAUUACGAAGG, the “self-splicing fitness (ln)” value by setting is: (30 °C) -2.52 ± 0.11; (37 °C) -1.38 ± 0.12.

UACAAGCAAUAUUACGACAA: the “self-splicing fitness (ln)” value is, setting by setting: (30 °C) -0.986 ± 0.11; (37 °C) -0.403 ± 0.11.

Take UACAAGCAAUAUUACGAGCG: the “self-splicing fitness (ln)” value was -0.155 ± 0.074 (30 °C) and -0.0756 ± 0.099 (37 °C).

Regarding UACAAGCAAUAUUACGAUAA, the “self-splicing fitness (ln)” value was -1.93 ± 0.13 (30 °C) and -0.276 ± 0.12 (37 °C).

With UACAAGCAAUAUUACGAUAU, the “self-splicing fitness (ln)” value was -2.75 ± 0.15 (30 °C) and -1.66 ± 0.19 (37 °C).

For UACAAGCAAUAUUACGAUGG, the “self-splicing fitness (ln)” value runs as follows: (30 °C) -1.37 ± 0.079; (37 °C) -0.712 ± 0.085.

Regarding UACAAGCAAUAUUACGAUUU, the “self-splicing fitness (ln)” value reads like this: (30 °C) -1.76 ± 0.066; (37 °C) -0.754 ± 0.084.

On to UACAAGCAAUAUUACGCAAA, for which the “self-splicing fitness (ln)” value runs as follows: (30 °C) -2.24 ± 0.14; (37 °C) -1.51 ± 0.14.

With UACAAGCAAUAUUACGCACU, the “self-splicing fitness (ln)” value reads like this: (30 °C) -0.66 ± 0.077; (37 °C) -0.133 ± 0.09.

Consider UACAAGCAAUAUUACGCUCC, for which the “self-splicing fitness (ln)” value runs as follows: (30 °C) -2.38 ± 0.17; (37 °C) -0.668 ± 0.17.

As for UACAAGCAAUAUUACGCUUU, the “self-splicing fitness (ln)” value is -3.73 ± 0.17 (30 °C) and -2.29 ± 0.16 (37 °C).

Take UACAAGCAAUAUUACGGCUC: the “self-splicing fitness (ln)” value is, setting by setting: (30 °C) -1.46 ± 0.088; (37 °C) -0.468 ± 0.11.

Regarding UACAAGCAAUAUUACGGGGU, the “self-splicing fitness (ln)” value (30 °C) is -3.88 ± 0.15 and the “self-splicing fitness (ln)” value (37 °C) is -2.58 ± 0.15.

Turning to UACAAGCAAUAUUACGGGUC, the “self-splicing fitness (ln)” value is, setting by setting: (30 °C) -3.32 ± 0.16; (37 °C) -2.78 ± 0.16.

As for UACAAGCAAUAUUACGGUCC, the “self-splicing fitness (ln)” value reads like this: (30 °C) -1.38 ± 0.18; (37 °C) -1.34 ± 0.18.

As to UACAAGCAAUAUUACGGUGU, the “self-splicing fitness (ln)” value was -3.91 ± 0.17 (30 °C) and -1.71 ± 0.12 (37 °C).

Take UACAAGCAAUAUUACGUAAU: the “self-splicing fitness (ln)” value was -2.72 ± 0.18 (30 °C) and -0.0213 ± 0.15 (37 °C).

As to UACAAGCAAUAUUACGUCAG, the “self-splicing fitness (ln)” value runs as follows: (30 °C) -2.54 ± 0.14; (37 °C) -2 ± 0.15.

With UACAAGCAAUAUUACGUCUG, the “self-splicing fitness (ln)” value was -0.521 ± 0.071 (30 °C) and 0.299 ± 0.08 (37 °C).

UACAAGCAAUAUUACGUUUA: the “self-splicing fitness (ln)” value (30 °C) was -1.33 ± 0.07 and the “self-splicing fitness (ln)” value (37 °C) was -0.605 ± 0.072.

Consider UACCAGCAAUAUUACGAAGA, for which the “self-splicing fitness (ln)” value runs as follows: (30 °C) -1.63 ± 0.097; (37 °C) -0.519 ± 0.11.

For the sequence UACCAGCAAUAUUACGACCC, the “self-splicing fitness (ln)” value runs as follows: (30 °C) -2.84 ± 0.5; (37 °C) -1.02 ± 0.44.

As for UACCAGCAAUAUUACGACUC, the “self-splicing fitness (ln)” value by setting is: (30 °C) -2.5 ± 0.18; (37 °C) -1.65 ± 0.2.

For the sequence UACCAGCAAUAUUACGAUAC, the “self-splicing fitness (ln)” value (37 °C) was -2.39 ± 0.19.

For the sequence UACCAGCAAUAUUACGAUCC, the “self-splicing fitness (ln)” value was -1.4 ± 0.15 (30 °C) and -1.84 ± 0.26 (37 °C).

For the sequence UACCAGCAAUAUUACGAUGC, the “self-splicing fitness (ln)” value was -3.19 ± 0.16 (30 °C) and -3.07 ± 0.25 (37 °C).

For UACCAGCAAUAUUACGAUGU, the “self-splicing fitness (ln)” value reads like this: (30 °C) -1.9 ± 0.091; (37 °C) -1.41 ± 0.11.

As to UACCAGCAAUAUUACGCAAU, the “self-splicing fitness (ln)” value (30 °C) is -2.29 ± 0.091 and the “self-splicing fitness (ln)” value (37 °C) was -0.841 ± 0.076.

On to UACCAGCAAUAUUACGCAUA, for which the “self-splicing fitness (ln)” value is -0.736 ± 0.072 (30 °C) and 0.0861 ± 0.083 (37 °C).

Take UACCAGCAAUAUUACGCAUG: the “self-splicing fitness (ln)” value reads like this: (30 °C) -1.22 ± 0.062; (37 °C) -1.09 ± 0.078.

On to UACCAGCAAUAUUACGCCGA, for which the “self-splicing fitness (ln)” value reads like this: (30 °C) -1.45 ± 0.16; (37 °C) -0.513 ± 0.17.

UACCAGCAAUAUUACGCGAG: the “self-splicing fitness (ln)” value is, setting by setting: (30 °C) -0.774 ± 0.049; (37 °C) -0.168 ± 0.061.

As to UACCAGCAAUAUUACGCUCC, the “self-splicing fitness (ln)” value (30 °C) is -1.12 ± 0.18 and the “self-splicing fitness (ln)” value (37 °C) was -0.501 ± 0.2.

UACCAGCAAUAUUACGGCCG: the “self-splicing fitness (ln)” value is 0.00307 ± 0.099 (30 °C) and -0.366 ± 0.12 (37 °C).

Regarding UACCAGCAAUAUUACGGGCU, the “self-splicing fitness (ln)” value is -2.89 ± 0.14 (30 °C) and -1.96 ± 0.19 (37 °C).

UACCAGCAAUAUUACGUAAU: the “self-splicing fitness (ln)” value runs as follows: (30 °C) -2.56 ± 0.097; (37 °C) -1.06 ± 0.096.

Regarding UACCAGCAAUAUUACGUGAA, the “self-splicing fitness (ln)” value is, setting by setting: (30 °C) -1.06 ± 0.053; (37 °C) -0.463 ± 0.076.

UACCAGCAAUAUUACGUUCU: the “self-splicing fitness (ln)” value is, setting by setting: (30 °C) -2.28 ± 0.096; (37 °C) -1.86 ± 0.11.

As to UACGAGCAAUAUUACGAAAA, the “self-splicing fitness (ln)” value (30 °C) is -3.03 ± 0.44 and the “self-splicing fitness (ln)” value (37 °C) is -2.28 ± 0.39.

For the sequence UACGAGCAAUAUUACGAAAU, the “self-splicing fitness (ln)” value (37 °C) was -1.69 ± 0.25.

Regarding UACGAGCAAUAUUACGACAC, the “self-splicing fitness (ln)” value by setting is: (30 °C) -3.07 ± 0.19; (37 °C) -3.28 ± 0.25.

In the case of UACGAGCAAUAUUACGACCA, under “30 °C”, the “self-splicing fitness (ln)” value is -1.71 ± 0.42.

Take UACGAGCAAUAUUACGACGG: the “self-splicing fitness (ln)” value (30 °C) was -2.13 ± 0.15 and the “self-splicing fitness (ln)” value (37 °C) worked out at 0.000849 ± 0.18.

Take UACGAGCAAUAUUACGAGGC: the “self-splicing fitness (ln)” value runs as follows: (30 °C) -4.33 ± 0.39; (37 °C) -2.51 ± 0.25.

For UACGAGCAAUAUUACGAUCA, the “self-splicing fitness (ln)” value is -1.89 ± 0.15 (30 °C) and -0.737 ± 0.13 (37 °C).

For UACGAGCAAUAUUACGAUGU, the “self-splicing fitness (ln)” value by setting is: (30 °C) -3.35 ± 0.32; (37 °C) -2.46 ± 0.34.

In the case of UACGAGCAAUAUUACGAUUU, the “self-splicing fitness (ln)” value by setting is: (30 °C) -2.88 ± 0.17; (37 °C) -1.3 ± 0.16.

As to UACGAGCAAUAUUACGCAGU, the “self-splicing fitness (ln)” value was -3.15 ± 0.26 (30 °C) and -2.95 ± 0.33 (37 °C).

UACGAGCAAUAUUACGCCAC: the “self-splicing fitness (ln)” value (37 °C) was -2.29 ± 0.42.

Take UACGAGCAAUAUUACGCGCG: the “self-splicing fitness (ln)” value is, setting by setting: (30 °C) -1.35 ± 0.13; (37 °C) -1.14 ± 0.18.

For UACGAGCAAUAUUACGGAAC, the “self-splicing fitness (ln)” value (30 °C) is -4.04 ± 0.42 and the “self-splicing fitness (ln)” value (37 °C) is -3.02 ± 0.35.

Take UACGAGCAAUAUUACGGAGC: the “self-splicing fitness (ln)” value reads like this: (30 °C) -2.66 ± 0.3; (37 °C) -2.8 ± 0.32.

Consider UACGAGCAAUAUUACGGCAU, for which the “self-splicing fitness (ln)” value is, setting by setting: (30 °C) -3.45 ± 0.23; (37 °C) -1.25 ± 0.15.

As to UACGAGCAAUAUUACGGCUC, the “self-splicing fitness (ln)” value (37 °C) was 0.0878 ± 0.5.

As to UACGAGCAAUAUUACGGCUG, the “self-splicing fitness (ln)” value (30 °C) was -0.628 ± 0.077 and the “self-splicing fitness (ln)” value (37 °C) was -0.0702 ± 0.1.

For UACGAGCAAUAUUACGGUCC, the “self-splicing fitness (ln)” value (30 °C) is -3.61 ± 0.43.

On to UACGAGCAAUAUUACGGUGA, for which the “self-splicing fitness (ln)” value (30 °C) is -3.12 ± 0.18 and the “self-splicing fitness (ln)” value (37 °C) is -1.21 ± 0.13.

For the sequence UACGAGCAAUAUUACGUACU, the “self-splicing fitness (ln)” value (30 °C) is -3.32 ± 0.32 and the “self-splicing fitness (ln)” value (37 °C) was -1.76 ± 0.22.

Consider UACGAGCAAUAUUACGUAUU, for which the “self-splicing fitness (ln)” value reads like this: (30 °C) -3.45 ± 0.25; (37 °C) -2.47 ± 0.41.

Turning to UACGAGCAAUAUUACGUCAC, the “self-splicing fitness (ln)” value is -2.59 ± 0.25 (30 °C) and -2.09 ± 0.32 (37 °C).

On to UACGAGCAAUAUUACGUGAU, for which the “self-splicing fitness (ln)” value by setting is: (30 °C) -4.17 ± 0.21; (37 °C) -2.45 ± 0.2.
